{"source": "patent US20250243261A1", "about": "(CZ BIOHUB SF, published 2025)", "binders": {"B1": {"name": "mAb114 WT IgG (antibody, V domains shown)", "VH": "EVQLVESGGGLIQPGGSLRLSCAASGFALRMYDMHWVRQTIDKRLEWVSAVGPSGDTYYADSVKGRFAVSRENAKNSLSLQMNSLTAGDTAIYYCVRSDRGVAGLFDSWGQGILVTVSS", "VL": "DIQMTQSPSSLSASVGDRITITCRASQAFDNYVAWYQQRPGKVPKLLISAASALHAGVPSRFSGSGSGTHFTLTISSLQPEDVATYYCQNYNSAPLTFGGGTKVEIK"}}, "biological_target": "T1, full-length Ebola GP on pseudotyped lentivirus (Zaire ebolavirus, UniProt Q05320 33-676)", "T1 sequence": "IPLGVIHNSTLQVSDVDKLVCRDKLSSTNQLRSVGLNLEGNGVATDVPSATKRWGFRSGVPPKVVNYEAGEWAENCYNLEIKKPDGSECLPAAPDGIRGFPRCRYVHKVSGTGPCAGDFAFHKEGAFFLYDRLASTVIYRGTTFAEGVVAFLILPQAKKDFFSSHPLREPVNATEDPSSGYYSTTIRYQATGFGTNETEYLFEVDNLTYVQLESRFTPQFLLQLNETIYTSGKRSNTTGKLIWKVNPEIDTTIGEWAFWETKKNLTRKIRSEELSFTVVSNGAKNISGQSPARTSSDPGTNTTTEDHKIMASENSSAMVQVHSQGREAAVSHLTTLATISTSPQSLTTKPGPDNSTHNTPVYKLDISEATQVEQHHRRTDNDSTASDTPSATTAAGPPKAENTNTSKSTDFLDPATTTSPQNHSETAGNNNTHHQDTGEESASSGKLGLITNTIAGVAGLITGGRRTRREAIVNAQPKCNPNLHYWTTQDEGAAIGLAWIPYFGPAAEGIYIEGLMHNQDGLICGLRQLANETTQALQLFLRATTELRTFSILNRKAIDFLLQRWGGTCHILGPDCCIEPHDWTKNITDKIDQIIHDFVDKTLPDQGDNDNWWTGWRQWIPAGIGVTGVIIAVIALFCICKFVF", "assay": "cell-based or functional assay", "data": [{"binder": "B1", "values": [{"measurement": "Ebola GP pseudotyped lentivirus IC50", "result": 1.43, "unit": "nM"}]}]}
